Data published in patent publication US20220267407A1 (published 2022).

What was measured:
[1] = target: T1, LMP2A (EBV) peptide on HLA-A*02:01 (human); test: the description's statement of this TCR's peptide sensitivity; K562-HLA-A*02:01 loaded with peptide, E:T 1:1; full-length, on cells
T1 peptide: CLGGLLTMV

[2] = target: T2, LMP2A (EBV) peptide on HLA-A*02:01 (human); test: cytokine release
T2 peptide: MCLGGLLTMV

[3] = target: T1, LMP2A (EBV) peptide on HLA-A*02:01; test: half-maximum IFN-gamma release; peptide titration on K562-HLA-A*02:01, ELISA after 24 h, E:T 1:1; full-length, on cells
[4] = target: T3, LMP1 (EBV) peptide on HLA-B*57:01 (human); test: cytokine release
T3 peptide: LLLFLAILIW

[5] = target: T4, LMP1 (EBV) peptide on HLA-B*57:01 (human); test: cytokine release
T4 peptide: LLFLAILIW

[6] = target: T5, LMP1 (EBV) peptide on HLA-B*57:01 (human); test: cytokine release
T5 peptide: WWTLLVDLLW

[7] = target: T6, LMP1 (EBV) peptide on HLA-B*57:01 (human); test: cytokine release
T6 peptide: NSNEGRHHL

[8] = target: T7, LMP1 (EBV) peptide on HLA-B*57:01 (human); test: cytokine release
T7 peptide: IALYLQQNWW

[9] = target: T8, LMP1 (EBV) peptide on HLA-B*57:01 (human); test: cytokine release
T8 peptide: WTLLVDLLWL

[10] = target: T9, LMP1 (EBV) peptide on HLA-B*57:01 (human); test: cytokine release
T9 peptide: LAILIWMYYH

[11] = target: T10, LMP1 (EBV) peptide on HLA-B*57:01 (human); test: cytokine release
T10 peptide: LAILIWMYY

[12] = target: T11, LMP1 (EBV) peptide on HLA-B*57:01 (human); test: cytokine release
T11 peptide: FLAILIWMYY

[13] = target: T12, LMP1 (EBV) peptide on HLA-B*57:01 (human); test: cytokine release
T12 peptide: ALYLQQNWW

[14] = target: T13, LMP1 (EBV) peptide on HLA-B*57:01 (human); test: cytokine release
T13 peptide: WTLLVDLLW

[15] = target: T14, LMP1 (EBV) peptide on HLA-B*57:01 (human); test: cytokine release
T14 peptide: IIALYLQQNW

[16] = target: T15, LMP1 (EBV) peptide on HLA-B*57:01 (human); test: half-maximum IFN-gamma release; peptide titration on K562-HLA-B*57:01, ELISA after 24 h, E:T 1:1; full-length, on cells
T15 peptide: IALYLQQNW

[17] = target: T16, LMP1 (EBV) peptide on HLA-C*15:02 (human); test: half-maximum IFN-gamma release; peptide titration on K562-HLA-C*15:02, ELISA after 24 h, E:T 1:1; full-length, on cells
T16 peptide: QQNWWTLLV

[18] = target: T17, LMP1 (EBV) peptide on HLA-C*15:02 (human); test: cytokine release
T17 peptide: DSLPHPQQA

[19] = target: T18, LMP1 (EBV) peptide on HLA-C*15:02 (human); test: cytokine release
T18 peptide: YLQQNWWTL

[20] = target: T19, LMP1 (EBV) peptide on HLA-C*15:02 (human); test: cytokine release
T19 peptide: NSNEGRHHL

[21] = target: T20, EBNA3C (EBV) peptide on HLA-B*44:02 (human); test: cytokine release
T20 peptide: WLLTSPSQSW

[22] = target: T21, EBNA3C (EBV) peptide on HLA-B*44:02 (human); test: cytokine release
T21 peptide: SERLVPEESY

[23] = target: T22, EBNA3C (EBV) peptide on HLA-B*44:02 (human); test: cytokine release
T22 peptide: LLTSPSQSW

[24] = target: T23, EBNA3C (EBV) peptide on HLA-B*44:02 (human); test: half-maximum IFN-gamma release; peptide titration on K562-HLA-B*44:02, ELISA after 24 h, E:T 1:1; full-length, on cells
T23 peptide: AEGGVGWRHW

[25] = target: T24, EBNA3C (EBV) peptide on HLA-C*06:02 (human); test: cytokine release
T24 peptide: VRFMGVMSS

[26] = target: T25, EBNA3C (EBV) peptide on HLA-C*06:02 (human); test: cytokine release
T25 peptide: NLLDFVRFM

[27] = target: T26, EBNA3C (EBV) peptide on HLA-C*06:02 (human); test: cytokine release
T26 peptide: YAREAEVRFL

[28] = target: T27, EBNA3C (EBV) peptide on HLA-C*06:02 (human); test: cytokine release
T27 peptide: NRVGADSIM

[29] = target: T28, EBNA3C (EBV) peptide on HLA-C*06:02 (human); test: cytokine release
T28 peptide: QRRYRRIYD

[30] = target: T29, EBNA3C (EBV) peptide on HLA-C*06:02 (human); test: cytokine release
T29 peptide: RRYRRIYDLI

[31] = target: T30, EBNA3C (EBV) peptide on HLA-C*06:02 (human); test: cytokine release
T30 peptide: ARRGIKEHV

[32] = target: T31, EBNA3C (EBV) peptide on HLA-C*06:02 (human); test: cytokine release
T31 peptide: YRRIYDLIE

[33] = target: T32, EBNA3C (EBV) peptide on HLA-C*06:02 (human); test: cytokine release
T32 peptide: RRGACVVYD

[34] = target: T33, EBNA3C (EBV) peptide on HLA-C*06:02 (human); test: cytokine release
T33 peptide: ERYAREAEV

[35] = target: T34, EBNA3C (EBV) peptide on HLA-C*06:02 (human); test: cytokine release
T34 peptide: FLRGKWQRRY

[36] = target: T35, EBNA3C (EBV) peptide on HLA-C*06:02 (human); test: cytokine release
T35 peptide: LRGKWQRRY

[37] = target: T36, EBNA3C (EBV) peptide on HLA-C*06:02 (human); test: cytokine release
T36 peptide: RRGIKEHVI

[38] = target: T37, EBNA3C (EBV) peptide on HLA-C*06:02 (human); test: cytokine release
T37 peptide: VYDDDVIEV

[39] = target: T38, EBNA3C (EBV) peptide on HLA-C*06:02 (human); test: cytokine release
T38 peptide: YAREAEVRF

[40] = target: T39, EBNA3C (EBV) peptide on HLA-C*06:02 (human); test: cytokine release
T39 peptide: QRRYRRIYDL

[41] = target: T40, EBNA3C (EBV) peptide on HLA-C*06:02 (human); test: cytokine release
T40 peptide: AREAEVRFL

[42] = target: T41, EBNA3C (EBV) peptide on HLA-C*06:02 (human); test: cytokine release
T41 peptide: SRRRRGACV

[43] = target: T42, EBNA3C (EBV) peptide on HLA-C*06:02 (human); test: cytokine release
T42 peptide: LHHIWQNLL

[44] = target: T43, EBNA3C (EBV) peptide on HLA-C*06:02 (human); test: cytokine release
T43 peptide: VRFLRGKWQ

[45] = target: T44, EBNA3C (EBV) peptide on HLA-C*06:02 (human); test: cytokine release
T44 peptide: WQRRYRRIY

[46] = target: T45, EBNA3C (EBV) peptide on HLA-C*06:02 (human); test: cytokine release
T45 peptide: RRRGACVVY

[47] = target: T46, EBNA3C (EBV) peptide on HLA-C*06:02 (human); test: cytokine release
T46 peptide: GCQNAARTL

[48] = target: T47, EBNA3C (EBV) peptide on HLA-C*06:02 (human); test: cytokine release
T47 peptide: RRRRGACVV

[49] = target: T48, EBNA3C (EBV) peptide on HLA-C*06:02 (human); test: cytokine release
T48 peptide: RRYRRIYDL

B1: TCR06 (TCR, V domains shown)
Valpha: KQEVTQIPAALSVPEGENLVLNCSFTDSAIYNLQWFRQDPGKGLTSLLLIQSSQREQTSGRLNASLDKSSGRSTLYIAASQPGDSATYLCAVLMDSNYQLIWGAGTKLIIKP
Vbeta: DAGITQSPRYKITETGRQVTLMCHQTWSHSYMFWYRQDLGHGLRLIYYSAAADITDKGEVPDGYVVSRSKTENFPLTLESATRSQTSVYFCASSEDGMNTEAFFGQGTRLTVV
B1 was tested, and the EC50 of peptide [1] was no more than 10 nM, the binding result [2] was “recognises” and the EC50 of peptide [3] was 6 nM.

B2: TCR50 (TCR, V domains shown)
Valpha: AQSVTQLDSHVSVSEGTPVLLRCNYSSSYSPSLFWYVQHPNKGLQLLLKYTSAATLVKGINGFEAEFKKSETSFHLTKPSAHMSDAAEYFCVVMATGFQKLVFGTGTRLLVSP
Vbeta: DSGVTQTPKHLITATGQRVTLRCSPRSGDLSVYWYQQSLDQGLQFLIQYYNGEERAKGNILERFSAQQFPDLHSELNLSSLELGDSALYFCASSVTSGSDEQFFGPGTRLTVL
B2: no recognition [4]; no recognition [5]; no recognition [6]. B2: no recognition [7]; recognises [8]; no recognition [9]. B2: no recognition [10]; no recognition [11]; no recognition [12]. B2: recognises [13]; no recognition [14]; recognises [15]. The EC50 of peptide [16] was 30 nM.

B3: TCR83 (TCR, V domains shown)
Valpha: GQNIDQPTEMTATEGAIVQINCTYQTSGFNGLFWYQQHAGEAPTFLSYNVLDGLEEKGRFSSFLSRSKGYSYLLLKELQMKDSASYLCAAVNNAGNMLTFGGGTRLMVKP
Vbeta: DTAVSQTPKYLVTQMGNDKSIKCEQNLGHDTMYWYKQDSKKFLKIMFSYNNKELIINETVPNRFSPKSPDKAHLNLHINSLELGDSAVYFCASSQGYGGPSTDTQYFGPGTRLTVL
With B3 the EC50 of peptide [17] was 2 nM, the binding result [18] was “no recognition” and the binding result [19] was “no recognition”. B3: no recognition [20].

B4: TCR25 (TCR, V domains shown)
Valpha: AQSVTQLDSHVSVSEGTPVLLRCNYSSSYSPSLFWYVQHPNKGLQLLLKYTSAATLVKGINGFEAEFKKSETSFHLTKPSAHMSDAAEYFCVAWDTGFQKLVFGTGTRLLVSP
Vbeta: EPEVTQTPSHQVTQMGQEVILRCVPISNHLYFYWYRQILGQKVEFLVSFYNNEISEKSEIFDDQFSVERPDGSNFTLKIRSTKLEDSAMYFCASKALADTQYFGPGTRLTVL
B4: no recognition [21]; no recognition [22]; no recognition [23]. It also gave an EC50 of peptide [24] of 600 nM.

B5: TCR58 (TCR, V domains shown)
Valpha: RKEVEQDPGPFNVPEGATVAFNCTYSNSASQSFFWYRQDCRKEPKLLMSVYSSGNEDGRFTAQLNRASQYISLLIRDSKLSDSATYLCVASGDSSYKLIFGSGTRLLVRP
Vbeta: EPEVTQTPSHQVTQMGQEVILRCVPISNHLYFYWYRQILGQKVEFLVSFYNNEISEKSEIFDDQFSVERPDGSNFTLKIRSTKLEDSAMYFCASSDPLSTYNEQFFGPGTRLTVL
B5: no recognition [21]; no recognition [22]; no recognition [23]. The EC50 of peptide [24] was 300 nM.

B6: TCR64 (TCR, V domains shown)
Valpha: TQLLEQSPQFLSIQEGENLTVYCNSSSVFSSLQWYRQEPGEGPVLLVTVVTGGEVKKLKRLTFQFGDARKDSSLHITAAQPGDTGLYLCAGDVDTGTASKLTFGTGTRLQVTL
Vbeta: DVKVTQSSRYLVKRTGEKVFLECVQDMDHENMFWYRQDPGLGLRLIYFSYDVKMKEKGDIPEGYSVSREKKERFSLILESASTNQTSMYLCASSLLGSGALYEQYFGPGTRLTVT
B6: no recognition [25]; no recognition [26]; no recognition [27]. B6: no recognition [28]; no recognition [29]; no recognition [30]. B6: no recognition [31]; no recognition [32]; no recognition [33]. B6: no recognition [34]; no recognition [35]; no recognition [36]. B6: no recognition [37]; no recognition [38]; no recognition [39]. B6: no recognition [40]; no recognition [41]; no recognition [42]. B6: no recognition [43]; no recognition [44]; no recognition [45]. B6: no recognition [46]; no recognition [47]; no recognition [48]. B6: no recognition [49].
